Data from paper PMC3107778.

What was measured:
[1] = target: YqiC of Salmonella enterica serovar Typhimurium (Salmonella enterica serovar Typhimurium ATCC 14028); experiment: SEC-MALS; static light scattering (90°) and refractive index coupled to a Superdex 75 column; eluted with PBS (methods) or 50 mM Tris-HCl, 150 mM NaCl pH 8; calibrated with BSA; single homogeneous peak
[2] = target: YqiC of Salmonella enterica serovar Typhimurium (Salmonella enterica serovar Typhimurium ATCC 14028); experiment: cross-linking; purified YqiC with ethylene glycol bis(succinimidylsuccinate) (EGS) at 0.5, 1.0 and 5.0 mM, 30 min at room temperature in phosphate-buffered saline, stopped with 50 mM Tris-HCl pH 8.0; products on 15% SDS-PAGE, Coomassie staining

YqiC of Salmonella enterica serovar Typhimurium (from UniProt A0A2X4T3G4 1-98) (natural protein)
stoichiometry N [1]: 3
stoichiometry N [2]: 3
